Results taken from patent US20240116985A1, “STAPLED PEPTIDES AND METHODS THEREOF” (priority 2020, published 2024).
Values belong to the binder of their own block, whether it stands above or below them. Starred links: 1 amine or outer side, 2 acyl side, 3 side chain; linkers in the order of their positions; H or OH if unused. Positions of bridges follow the written chain, without caps; N, C: chain ends. Non-standard residues stand in square brackets, D forms with d. Primed or numbered codes have the meaning given here. No end group written: not given here. *: point of attachment. PyrS2″ = (S)-3-amino-1-((pent-4-en-1-yloxy)carbonyl)pyrrolidine-3-carboxylic acid (stapling residue), C=CCCCOC(=O)N1CC[C@@](N[*:1])(C(=O)[*:2])C1; B5(4) = 2,2-bis(4-pentenyl)glycine = 2-amino-2-(pent-4-en-1-yl)hept-6-enoic acid (stitching residue), C=CCCCC(CCCC=C)(N[*:1])C(=O)[*:2]; B5(5) = 2,2-bis(4-pentenyl)glycine, 2-amino-2-(pent-4-en-1-yl)hept-6-enoic acid (stitching residue), C=CCCCC(CCCC=C)(N[*:1])C(=O)[*:2]; TfeGA = (S)-2-amino-3-((carboxymethyl)(2,2,2-trifluoroethyl)amino)propanoic acid, O=C([C@H](CN(CC(=O)[*:3])CC(F)(F)F)N[*:1])[*:2]; PyrS2 = (S)-3-amino-1-((pent-4-en-1-yloxy)carbonyl)pyrrolidine-3-carboxylic acid, C=CCCCOC(=O)N1CC[C@@](N[*:1])(C(=O)[*:2])C1; PyrS3 = (S)-3-amino-1-((hex-5-en-1-yloxy)carbonyl)pyrrolidine-3-carboxylic acid, C=CCCCCOC(=O)N1CC[C@@](N[*:1])(C(=O)[*:2])C1; Az2 = 3-amino-1-((pent-4-en-1-yloxy)carbonyl)azetidine-3-carboxylic acid, C=CCCCOC(=O)N1CC(N[*:1])(C(=O)[*:2])C1; Az3 = 3-amino-1-((hex-5-en-1-yloxy)carbonyl)azetidine-3-carboxylic acid, C=CCCCCOC(=O)N1CC(N[*:1])(C(=O)[*:2])C1; B5(12) = 2-amino-2-(pent-4-en-1-yl)hept-6-enoic acid (two olefin side chains), C=CCCCC(CCCC=C)(N[*:1])C(=O)[*:2]; B5(7) = 2-amino-2-(pent-4-en-1-yl)hept-6-enoic acid, two olefinic side chains, C=CCCCC(CCCC=C)(N[*:1])C(=O)[*:2]; B5(13) = 2-amino-2-(pent-4-en-1-yl)hept-6-enoic acid (two alkene chains), C=CCCCC(CCCC=C)(N[*:1])C(=O)[*:2]; B5(3) = 2,2-bis(4-pentenyl)glycine (stitching residue), C=CCCCC(CCCC=C)(N[*:1])C(=O)[*:2]; B5 = 2-amino-2-(pent-4-en-1-yl)hept-6-enoic acid, C=CCCCC(CCCC=C)(N[*:1])C(=O)[*:2]; Phe(3-COOH) = N[C@@H](Cc1cccc(C(=O)O)c1)C(=O)O; Phe(2-Cl) = N[C@@H](Cc1ccccc1Cl)C(=O)O; Bta = N[C@@H](Cc1csc2ccccc12)C(=O)O; αAllylPro = C=CC[C@@]1(C(=O)O)CCCN1; tBuAla = CC(C)(C)C[C@H](N)C(=O)O; 3Thi = N[C@@H](Cc1ccsc1)C(=O)O; S8 = C=CCCCCCC[C@](C)(N)C(=O)O; Thr(ol) = C[C@@H](O)[C@H](N)CO; hSer = N[C@@H](CCO)C(=O)O; Abu = CC[C@H](N)C(=O)O; Alaol = C[C@@H](CO)N*; Aib = CC(C)(N)C(=O)O

Experiments:
[1] = biological target: Bcat-Halo (UniProt P35222); experiment: NanoBRET Abs IC50 in HEK293 cells; Bcat-Halo, TCF4-Luc as competitor
[2] = biological target: full-length beta-Catenin (Uniprot ID P35222) (Homo sapiens (Human)) (UniProt P35222); experiment: fluorescence polarization competition; full-length beta-catenin, competitor 5FAM-TCF4(10-53) probe
[3] = biological target: full-length beta-Catenin (Uniprot ID P35222) (Homo sapiens (Human)) (UniProt P35222); experiment: competition fluorescence polarization; full-length beta-catenin, 5FAM-TCF4(10-53) probe as competitor
Target sequence in this assay (P35222 whole entry, one chain of several): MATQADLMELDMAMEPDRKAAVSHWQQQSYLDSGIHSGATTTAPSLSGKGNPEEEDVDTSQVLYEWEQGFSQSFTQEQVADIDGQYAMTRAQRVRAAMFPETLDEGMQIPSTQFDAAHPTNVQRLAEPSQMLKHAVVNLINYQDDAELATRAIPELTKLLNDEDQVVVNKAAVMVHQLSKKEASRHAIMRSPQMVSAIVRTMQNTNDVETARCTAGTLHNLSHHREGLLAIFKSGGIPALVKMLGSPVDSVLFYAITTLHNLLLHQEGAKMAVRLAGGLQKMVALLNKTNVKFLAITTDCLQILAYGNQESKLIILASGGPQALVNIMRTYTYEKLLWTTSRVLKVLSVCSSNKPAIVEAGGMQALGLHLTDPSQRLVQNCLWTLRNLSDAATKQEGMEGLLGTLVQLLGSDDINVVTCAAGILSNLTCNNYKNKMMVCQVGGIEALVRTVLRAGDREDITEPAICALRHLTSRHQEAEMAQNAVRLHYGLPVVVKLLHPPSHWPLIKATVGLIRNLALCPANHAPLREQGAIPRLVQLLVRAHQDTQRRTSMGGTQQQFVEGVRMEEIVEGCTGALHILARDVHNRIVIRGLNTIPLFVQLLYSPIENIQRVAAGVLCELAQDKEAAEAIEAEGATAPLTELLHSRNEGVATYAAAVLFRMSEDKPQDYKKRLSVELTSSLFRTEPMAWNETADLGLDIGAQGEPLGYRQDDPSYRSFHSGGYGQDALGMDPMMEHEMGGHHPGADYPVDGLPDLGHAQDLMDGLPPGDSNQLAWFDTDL

[4] = biological target: B-cat-Halo (beta-catenin HaloTag NanoBRET construct expressed in HEK293 cells) (UniProt P35222); experiment: NanoBRET Abs IC50 in HEK293 cells; Bcat-Halo, TCF4-Luc as competitor
[5] = biological target: full-length beta-Catenin (Uniprot ID P35222) (Homo sapiens (Human)) (UniProt P35222); experiment: FP competition: displacement of 5FAM-TCF4(10-53) from full-length beta-catenin
Target sequence in this assay (P35222 whole entry, one chain of several): as above

[6] = biological target: full-length beta-Catenin (Uniprot ID P35222) (Homo sapiens (Human)) (UniProt P35222); experiment: fluorescence polarization competition; full-length beta-catenin, 5FAM-TCF4(10-53) probe as competitor
Target sequence in this assay (P35222 2-781 limits assumed): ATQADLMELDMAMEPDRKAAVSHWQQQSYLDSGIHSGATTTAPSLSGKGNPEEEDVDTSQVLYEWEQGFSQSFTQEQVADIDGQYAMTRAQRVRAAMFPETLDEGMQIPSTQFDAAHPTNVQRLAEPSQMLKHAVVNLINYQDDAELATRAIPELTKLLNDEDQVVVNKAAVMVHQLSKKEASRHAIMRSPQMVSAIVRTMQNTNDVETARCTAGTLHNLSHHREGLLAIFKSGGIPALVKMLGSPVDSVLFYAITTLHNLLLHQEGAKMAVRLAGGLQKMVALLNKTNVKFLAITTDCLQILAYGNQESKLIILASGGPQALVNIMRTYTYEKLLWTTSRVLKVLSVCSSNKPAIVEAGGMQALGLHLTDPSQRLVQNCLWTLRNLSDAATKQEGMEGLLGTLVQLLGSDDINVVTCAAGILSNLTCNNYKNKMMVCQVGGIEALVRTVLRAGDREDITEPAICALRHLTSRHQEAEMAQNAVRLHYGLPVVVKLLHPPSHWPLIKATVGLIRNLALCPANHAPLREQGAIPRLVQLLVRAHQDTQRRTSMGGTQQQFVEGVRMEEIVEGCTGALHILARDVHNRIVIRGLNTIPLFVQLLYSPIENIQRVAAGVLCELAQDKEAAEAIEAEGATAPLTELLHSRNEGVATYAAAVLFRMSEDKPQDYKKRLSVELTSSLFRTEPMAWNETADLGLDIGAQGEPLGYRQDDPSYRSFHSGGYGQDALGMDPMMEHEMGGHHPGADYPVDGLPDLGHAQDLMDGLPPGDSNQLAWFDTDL

[7] = biological target: full-length beta-Catenin (Uniprot ID P35222) (Homo sapiens (Human)) (UniProt P35222); experiment: fluorescence polarization competition, full-length beta-catenin with 5FAM-TCF4(10-53) probe
Target sequence in this assay (P35222 2-781 limits assumed): as above

[8] = biological target: full-length beta-Catenin (Uniprot ID P35222) (Homo sapiens (Human)) (UniProt P35222); experiment: fluorescence polarization competition; full-length beta-catenin, 5FAM-TCF4(10-53) probe
Target sequence in this assay (P35222 2-781 limits assumed): as above

[9] = biological target: full-length beta-Catenin (Uniprot ID P35222) (Homo sapiens (Human)) (UniProt P35222); experiment: fluorescence polarization competition; 10 nM full-length beta-catenin with 10 nM 5FAM-TCF4(10-53) probe
Target sequence in this assay (P35222 2-781 limits assumed): as above

[10] = biological target: full-length beta-Catenin (Uniprot ID P35222) (Homo sapiens (Human)) (UniProt P35222); experiment: fluorescence polarization competition; full-length beta-catenin, competitor probe 5FAM-TCF4(10-53)
Target sequence in this assay (P35222 2-781 limits assumed): as above

[11] = biological target: B-cat-Halo (beta-catenin HaloTag NanoBRET construct expressed in HEK293 cells) (UniProt P35222); experiment: NanoBRET Abs IC50; HEK293 cells transfected with B-cat-Halo and TCF4-Luc (competitor: TCF4-Luc)
[12] = biological target: full-length beta-Catenin (Uniprot ID P35222) (Homo sapiens (Human)) (UniProt P35222); experiment: fluorescence polarization competition; full-length beta-catenin with 5FAM-labeled TCF4 (10-53) probe as competitor
Target sequence in this assay (P35222 whole entry, one chain of several): as the sequence (P35222 whole entry, one chain of several) above

[13] = biological target: full-length beta-Catenin (Uniprot ID P35222) (Homo sapiens (Human)) (UniProt P35222); experiment: fluorescence polarization competition; displacement of 5FAM-TCF4(10-53) from full-length beta-catenin
Target sequence in this assay (P35222 whole entry, one chain of several): as above

[14] = biological target: full-length beta-Catenin (Uniprot ID P35222) (Homo sapiens (Human)) (UniProt P35222); experiment: fluorescence polarization competition; 10 nM full-length beta-catenin with 10 nM 5FAM-labeled TCF4 residues 10-53 probe, peptide titrated
Target sequence in this assay (P35222 whole entry, one chain of several): as above

[15] = biological target: full-length beta-Catenin (Uniprot ID P35222) (Homo sapiens (Human)) (UniProt P35222); experiment: fluorescence polarization competition; full-length beta-catenin with 5FAM-TCF4(10-53) probe as competitor
Target sequence in this assay (P35222 whole entry, one chain of several): as above

[16] = biological target: Bcat-Halo (UniProt P35222); experiment: NanoBRET in HEK293 cells, Bcat-Halo/TCF4-Luc (competitor TCF4-Luc); absolute IC50
[17] = biological target: Bcat-Halo (beta-catenin HaloTag construct expressed in HEK293 cells) (UniProt P35222); experiment: NanoBRET IC50 in HEK293 cells; Bcat-Halo with TCF4-Luc as competitor
[18] = biological target: full-length beta-Catenin (Uniprot ID P35222) (Homo sapiens (Human)) (UniProt P35222); experiment: fluorescence polarization competition; 10 nM full-length beta-catenin with 10 nM 5FAM-TCF4 (residues 10-53) probe as competitor
Target sequence in this assay (P35222 2-781 limits assumed): as the sequence (P35222 2-781 limits assumed) above

[19] = biological target: Bcat-Halo (UniProt P35222); experiment: NanoBRET Abs IC50, HEK293 cells, B-cat-Halo/TCF4-Luc; competitor TCF4-Luc
[20] = biological target: full-length beta-Catenin (Uniprot ID P35222) (Homo sapiens (Human)) (UniProt P35222); experiment: FP competition vs 5FAM-TCF4(10-53), full-length beta-catenin
[21] = biological target: Bcat-Halo (UniProt P35222); experiment: NanoBRET in HEK293 cells, Bcat-Halo/TCF4-Luc (competitor TCF4-Luc); percent inhibition at 10 uM peptide
[22] = biological target: full-length beta-Catenin (Uniprot ID P35222) (Homo sapiens (Human)) (UniProt P35222); experiment: fluorescence polarization competition; peptide displaces 5FAM-TCF4(10-53) from full-length beta-catenin

Chain of B-cat-Halo (beta-catenin HaloTag NanoBRET construct expressed in HEK293 cells) (P35222 whole entry): as the sequence (P35222 whole entry, one chain of several) above
Chain of Bcat-Halo (P35222 whole entry): as the sequence (P35222 whole entry, one chain of several) above
Chain of Bcat-Halo (beta-catenin HaloTag construct expressed in HEK293 cells) (P35222 whole entry, the tested form may be a part): as the sequence (P35222 whole entry, one chain of several) above

Binder: Ac-[αAllylPro]D[Abu][B5]DDAAFN[S8]F[Bta]H-NH2 (staple 1-4, 4-11) [I-574]
IC50 [1]: > 20000 nM
EC50 [2]: 36 nM
IC50 [3]: 36 nM

Binder: Ac-[αAllylPro]D[tBuAla][B5(5)]DDAAFN[S8]F[Bta]H-NH2 (staple 1-4, 4-11) [I-582]
IC50 [1]: 15800 nM
EC50 [2]: 17.5 nM
IC50 [3]: 17.5 nM

Binder: Ac-[αAllylPro]D[tBuAla][B5(3)]D[TfeGA]AAFF[S8][Phe(2-Cl)][Bta]Q-NH2 (staple 1-4, 4-11) [I-931]
EC50 [7]: 221 nM
IC50 [8]: 221 nM

Binder: Ac-[αAllylPro]D[tBuAla][B5(3)]D[TfeGA]AAFF[PyrS2″][Phe(2-Cl)][Bta]S-NH2 (staple 1-4, 4-11) [I-990]
IC50 [10]: 41 nM
IC50 [11]: 8800 nM
EC50 [12]: 41 nM

Binder: Ac-[αAllylPro]D[Abu][B5(4)]DEAAFQ[S8]F[Bta]H-NH2 (staple 1-4, 4-11) [I-571]
IC50 [1]: 15600 nM
EC50 [13]: 32 nM
IC50 [3]: 32 nM

Binder: Ac-[αAllylPro]D[tBuAla][B5(3)]D[TfeGA]AAFF[PyrS2″]F[Bta]Q-NH2 (staple 1-4, 4-11) [I-988]
IC50 [10]: 5 nM
IC50 [11]: 13900 nM
EC50 [12]: 5 nM

Binder: Ac-[αAllylPro]D[tBuAla][B5(7)]D[TfeGA]AAFN[PyrS2][3Thi][Bta]H-NH2 (staple 1-4, 4-11; also: earlier-eluting staple isomer) [I-769]
IC50 [15]: 5 nM
EC50 [2]: 5 nM
IC50 [16]: 13000 nM

Binder: Ac-[αAllylPro]D[tBuAla][B5(3)]D[TfeGA]AAF[hSer][S8][Phe(2-Cl)][Bta]Q-NH2 (staple 1-4, 4-11) [I-996]
IC50 [10]: 21 nM
IC50 [11]: 11300 nM
EC50 [12]: 21 nM

Binder: Ac-[αAllylPro]D[tBuAla][B5(4)]DTAAFN[PyrS2][3Thi][Bta]Q-NH2 (staple 1-4, 4-11) [I-844]
IC50 [13]: 6 nM
IC50 [17]: 10700 nM
EC50 [18]: 6 nM

Binder: Ac-[αAllylPro]D[tBuAla][B5(7)]D[TfeGA]AAFN[PyrS2][3Thi][Bta]H-NH2 (staple 1-4, 4-11; also: later-eluting staple isomer) [I-770]
IC50 [15]: 5 nM
EC50 [2]: 5 nM
IC50 [16]: 13700 nM

Binder: Ac-[αAllylPro]D[tBuAla][B5(12)]DHAAFN[PyrS2][3Thi][Bta]Q-NH2 (staple 1-4, 4-11) [I-864]
IC50 [19]: 40000 nM
IC50 [20]: 12 nM
IC50 [17]: 29100 nM
EC50 [18]: 12 nM

Binder: Ac-[αAllylPro]D[tBuAla][B5(12)]DNAAFN[PyrS2][3Thi][Bta]-NH2 (staple 1-4, 4-11) [I-857]
IC50 [19]: 30600 nM
IC50 [20]: 15 nM
IC50 [17]: 50600 nM
EC50 [18]: 15 nM

Binder: Ac-[αAllylPro]D[tBuAla][B5(13)]DDAAFN[PyrS3][3Thi][Bta]H-NH2 (staple 1-4, 4-11) [I-775]
NanoBRET % inh @ 10 uM [21]: 5.1%
EC50 [2]: 7 nM
IC50 [22]: 6 nM

Second part, the binder after the results:

IC50 [4]: > 20000 nM
EC50 [5]: 30 nM
IC50 [6]: 30 nM
Binder: Ac-[αAllylPro]D[tBuAla][B5(4)]D[TfeGA]AAFT[PyrS2″][Phe(2-Cl)][Bta]-Alaol (staple 1-4, 4-11) [I-1242]

IC50 [9]: 130 nM
Binder: Ac-[αAllylPro]D[tBuAla][B5(3)]D[Phe(3-COOH)][Aib]AFL[Az2][3Thi][Bta]Q-NH2 (staple 1-4, 4-11) [I-2617]

IC50 [9]: 77 nM
B1: I-2618 (peptide)
peptide: Ac-[αAllylPro]D[tBuAla][B5(3)]D[Phe(3-COOH)][Aib]AFL[Az3][3Thi][Bta]Q-NH2
modifications: staple 1-4, 4-11; not fully specified; printed as Ac-PL3-Asp-Npg-B5-Asp-3COOHF-Aib-Ala-Phe-Leu-Az3-3Thi-BztA-Gln-NH2

IC50 [4]: 15700 nM
EC50 [5]: 19 nM
IC50 [6]: 19 nM
Binder: Ac-[αAllylPro]D[tBuAla][B5(4)]D[TfeGA]AAFT[PyrS2″][Phe(2-Cl)][Bta][Thr(ol)] (staple 1-4, 4-11) [I-1241]

IC50 [14]: 320 nM
B2: I-1984 (peptide)
peptide: PD[tBuAla][B5]D[Phe(3-COOH)]AAFL[PyrS2][Phe(2-Cl)][Bta]Q-NH2
modifications: staple 4-11; staple (positions not given here); not fully specified (residue 1, N-terminus, bridges); printed as ProAm5-Asp-Npg-B5-Asp-3COOHF-Ala-Ala-Phe-Leu-PyrS2-2C1F-BztA-Gln-NH2

IC50 [9]: 36 nM
B3: I-2619 (peptide)
peptide: Ac-[αAllylPro]D[tBuAla][B5(4)]D[Phe(3-COOH)][Aib]AFL[Az3][3Thi][Bta]Q-NH2
modifications: staple 1-4, 4-11; not fully specified; printed as Ac-PL3-Asp-Npg-B5-Asp-3COOHF-Aib-Ala-Phe-Leu-Az3-3Thi-BztA-Gln-NH2

IC50 [14]: 502 nM
B4: I-1986 (peptide)
peptide: PD[tBuAla][B5]D[TfeGA]AAFT[PyrS2][Phe(2-Cl)][Bta]Q-NH2
modifications: staple 4-11; staple (positions not given here); not fully specified (residue 1, N-terminus, bridges)

IC50 [14]: 325 nM
B5: I-1985 (peptide)
peptide: PD[tBuAla][B5]D[Phe(3-COOH)]AAFL[PyrS2][Phe(2-Cl)][Bta]Q-NH2
modifications: staple 4-11; staple (positions not given here); not fully specified (residue 1, N-terminus, bridges); printed as ProAm6-Asp-Npg-B5-Asp-3COOHF-Ala-Ala-Phe-Leu-PyrS2-2C1F-BztA-Gln-NH2
